# From patent US20120220489A1
# How the values were obtained:
# [1] = molecular target: Histone H3-BSA 2.7x peptide-protein conjugate (bovine); assay: RPA, competition: +free H3 peptide 1000 nM
# [2] = molecular target: Histone H3 recombinant protein, calf, Roche 11 034 758 001 (calf) (UniProt P68432); assay: RPA, competition: +free H3 peptide 1000 nM
# [3] = molecular target: ERK1 (p42) active (phospho), human, Active Motif 31 152 (human) (UniProt P27361); assay: RPA, competition: +free H3 peptide 1000 nM
# [4] = molecular target: ERK2 (p42), human, Biosource PHO 0104 (human) (UniProt P28482); assay: RPA, competition: +free H3 peptide 1000 nM
# [5] = molecular target: pErk1/2-BSA 2.7x peptide-protein conjugate (human; bovine); assay: RPA, competition: +free H3 peptide 1000 nM
# [6] = molecular target: ERK1 (p44), human, Cell Signaling Technology 7416 (human) (UniProt P27361); assay: RPA, competition: +free H3 peptide 1000 nM
# [7] = molecular target: Erk1-BSA 2.7x peptide-protein conjugate (human; bovine); assay: RPA, competition: +free H3 peptide 1000 nM
# [8] = molecular target: Histone H3 recombinant protein, human, Upstate 14-494 (human) (UniProt P68431); assay: RPA, competition: +free H3 peptide 1000 nM
# [9] = molecular target: ERK1 (p44) inactive (GST tagged), human, Invitrogen PV 3312 (human) (UniProt P27361); assay: RPA, competition: +free H3 peptide 1000 nM
# [10] = molecular target: ERK1 (p44) active (GST tagged), human, Invitrogen PV 3311 (human) (UniProt P27361); assay: RPA, competition: +free H3 peptide 1000 nM
# [11] = molecular target: pRb-BSA 1x peptide-protein conjugate (bovine); assay: RPA, competition: +free H3 peptide 1000 nM
# [12] = molecular target: pRb recombinant protein, human, Active Motif 31 128 (human) (UniProt P06400); assay: RPA, competition: +free H3 peptide 1000 nM
# [13] = molecular target: Histone H3 recombinant protein, human, Upstate 14-494 (human) (UniProt P68431); assay: RPA standard curve, assay 1, LOD back-calculated from one-site fit
# [14] = molecular target: Histone H3-BSA 2.7x peptide-protein conjugate (bovine); assay: RPA standard curve, assay 2, LOD back-calculated from one-site fit
# [15] = molecular target: Histone H3 recombinant protein, human, Upstate 14-494 (human) (UniProt P68431); assay: as above
# [16] = molecular target: Histone H3-BSA 2.7x peptide-protein conjugate (bovine); assay: RPA standard curves, mean of duplicate assays
# [17] = molecular target: Histone H3 recombinant protein, human, Upstate 14-494 (human) (UniProt P68431); assay: RPA standard curves, mean of duplicate assays
# [18] = molecular target: ERK1 (p44) inactive (GST tagged), human, Invitrogen PV 3312 (human) (UniProt P27361); assay: RPA standard curve, assay 1, LOD back-calculated from one-site fit
# [19] = molecular target: Erk1-BSA 2.7x peptide-protein conjugate (human; bovine); assay: RPA standard curve, assay 2, LOD back-calculated from one-site fit
# [20] = molecular target: ERK1 (p44) inactive (GST tagged), human, Invitrogen PV 3312 (human) (UniProt P27361); assay: as above
# [21] = molecular target: Erk1-BSA 2.7x peptide-protein conjugate (human; bovine); assay: RPA standard curves, mean of duplicate assays
# [22] = molecular target: ERK1 (p44) inactive (GST tagged), human, Invitrogen PV 3312 (human) (UniProt P27361); assay: RPA standard curves, mean of duplicate assays
# [23] = molecular target: pErk1/2-BSA 2.7x peptide-protein conjugate (human; bovine); assay: RPA, 8 point dilution series of the peptide standard in buffer, assay 2
# [24] = molecular target: Histone H3-BSA 2.7x peptide-protein conjugate (bovine); assay: RPA, competition: +free pErk1/2 peptide 100 nM
# [25] = molecular target: Histone H3 recombinant protein, calf, Roche 11 034 758 001 (calf) (UniProt P68432); assay: RPA, competition: +free pErk1/2 peptide 100 nM
# [26] = molecular target: ERK1 (p42) active (phospho), human, Active Motif 31 152 (human) (UniProt P27361); assay: RPA, competition: +free pErk1/2 peptide 100 nM
# [27] = molecular target: ERK2 (p42), human, Biosource PHO 0104 (human) (UniProt P28482); assay: RPA, competition: +free pErk1/2 peptide 100 nM
# [28] = molecular target: pErk1/2-BSA 2.7x peptide-protein conjugate (human; bovine); assay: RPA, competition: +free pErk1/2 peptide 100 nM
# [29] = molecular target: ERK1 (p44), human, Cell Signaling Technology 7416 (human) (UniProt P27361); assay: RPA, competition: +free pErk1/2 peptide 100 nM
# [30] = molecular target: Erk1-BSA 2.7x peptide-protein conjugate (human; bovine); assay: RPA, competition: +free pErk1/2 peptide 100 nM
# [31] = molecular target: Histone H3 recombinant protein, human, Upstate 14-494 (human) (UniProt P68431); assay: RPA, competition: +free pErk1/2 peptide 100 nM
# [32] = molecular target: ERK1 (p44) inactive (GST tagged), human, Invitrogen PV 3312 (human) (UniProt P27361); assay: RPA, competition: +free pErk1/2 peptide 100 nM
# [33] = molecular target: ERK1 (p44) active (GST tagged), human, Invitrogen PV 3311 (human) (UniProt P27361); assay: RPA, competition: +free pErk1/2 peptide 100 nM
# [34] = molecular target: pRb-BSA 1x peptide-protein conjugate (bovine); assay: RPA, competition: +free pErk1/2 peptide 100 nM
# [35] = molecular target: pRb recombinant protein, human, Active Motif 31 128 (human) (UniProt P06400); assay: RPA, competition: +free pErk1/2 peptide 100 nM
# [36] = molecular target: pErk1/2-BSA 2.7x peptide-protein conjugate (human; bovine); assay: RPA standard curve, assay 2, LOD back-calculated from one-site fit
# [37] = molecular target: pErk1/2-BSA 2.7x peptide-protein conjugate (human; bovine); assay: RPA standard curves, mean of duplicate assays
# Chain of Erk1-BSA 2.7x peptide-protein conjugate (human; bovine) (peptide, as listed by the source limits assumed, chain 1 of 2): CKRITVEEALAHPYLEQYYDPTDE
# Chain of Erk1-BSA 2.7x peptide-protein conjugate (human; bovine) (P02769 25-607 limits assumed, chain 2 of 2): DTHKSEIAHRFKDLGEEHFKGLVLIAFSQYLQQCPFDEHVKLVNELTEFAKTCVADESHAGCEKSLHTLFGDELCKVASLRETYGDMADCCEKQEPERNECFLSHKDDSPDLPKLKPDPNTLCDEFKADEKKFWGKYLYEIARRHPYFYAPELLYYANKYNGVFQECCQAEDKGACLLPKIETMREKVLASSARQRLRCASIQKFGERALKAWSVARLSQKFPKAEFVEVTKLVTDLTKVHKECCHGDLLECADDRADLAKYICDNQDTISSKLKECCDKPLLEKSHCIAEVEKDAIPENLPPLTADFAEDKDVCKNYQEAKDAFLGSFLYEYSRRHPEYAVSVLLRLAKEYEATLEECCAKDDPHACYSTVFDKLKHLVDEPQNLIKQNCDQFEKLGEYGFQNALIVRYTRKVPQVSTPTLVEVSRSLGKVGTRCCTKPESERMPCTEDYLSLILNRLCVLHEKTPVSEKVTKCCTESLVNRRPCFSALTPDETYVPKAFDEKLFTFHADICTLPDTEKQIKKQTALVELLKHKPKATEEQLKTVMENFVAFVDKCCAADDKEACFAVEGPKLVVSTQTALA
# Chain of Histone H3-BSA 2.7x peptide-protein conjugate (bovine) (P02769 25-607 limits assumed): as the sequence (P02769 25-607 limits assumed, chain 2 of 2) above
# Chain of pErk1/2-BSA 2.7x peptide-protein conjugate (human; bovine) (P02769 25-607 limits assumed): as the sequence (P02769 25-607 limits assumed, chain 2 of 2) above
# Chain of UniProt P28482 (P28482 2-360 limits assumed): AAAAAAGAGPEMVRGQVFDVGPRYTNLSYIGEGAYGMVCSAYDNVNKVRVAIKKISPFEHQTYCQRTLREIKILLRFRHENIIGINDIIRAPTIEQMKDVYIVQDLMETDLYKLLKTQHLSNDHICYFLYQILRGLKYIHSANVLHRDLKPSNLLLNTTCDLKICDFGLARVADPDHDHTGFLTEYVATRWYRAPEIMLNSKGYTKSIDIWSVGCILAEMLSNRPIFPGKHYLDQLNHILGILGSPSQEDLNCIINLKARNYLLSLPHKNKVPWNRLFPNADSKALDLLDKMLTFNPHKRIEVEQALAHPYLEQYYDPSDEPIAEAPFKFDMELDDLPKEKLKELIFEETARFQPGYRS
# Chain of UniProt P06400 (P06400 whole entry): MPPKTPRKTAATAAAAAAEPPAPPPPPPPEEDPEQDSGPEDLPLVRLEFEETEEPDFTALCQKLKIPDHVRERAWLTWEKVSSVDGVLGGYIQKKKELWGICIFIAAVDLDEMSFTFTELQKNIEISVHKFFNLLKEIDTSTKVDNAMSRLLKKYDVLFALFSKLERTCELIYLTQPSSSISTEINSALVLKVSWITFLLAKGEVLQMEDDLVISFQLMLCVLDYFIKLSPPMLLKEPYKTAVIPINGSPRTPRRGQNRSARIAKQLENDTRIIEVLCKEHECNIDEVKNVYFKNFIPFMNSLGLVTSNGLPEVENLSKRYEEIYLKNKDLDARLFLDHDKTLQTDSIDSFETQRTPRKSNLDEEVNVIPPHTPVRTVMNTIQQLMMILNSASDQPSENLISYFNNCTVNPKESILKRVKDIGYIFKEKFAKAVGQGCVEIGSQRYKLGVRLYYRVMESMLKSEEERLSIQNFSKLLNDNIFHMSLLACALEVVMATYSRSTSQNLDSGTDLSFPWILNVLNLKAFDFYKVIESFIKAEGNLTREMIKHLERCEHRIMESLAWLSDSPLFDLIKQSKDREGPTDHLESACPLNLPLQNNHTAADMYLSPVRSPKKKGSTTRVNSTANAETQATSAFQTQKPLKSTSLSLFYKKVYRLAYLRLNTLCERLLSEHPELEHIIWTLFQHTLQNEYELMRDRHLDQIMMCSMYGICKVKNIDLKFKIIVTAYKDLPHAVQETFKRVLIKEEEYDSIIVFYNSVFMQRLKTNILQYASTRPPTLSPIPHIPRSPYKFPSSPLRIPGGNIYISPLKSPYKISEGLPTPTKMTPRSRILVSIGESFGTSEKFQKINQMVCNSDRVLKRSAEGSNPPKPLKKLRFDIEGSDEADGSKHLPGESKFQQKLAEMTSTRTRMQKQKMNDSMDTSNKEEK
# Chain of pRb-BSA 1x peptide-protein conjugate (bovine) (P02769 25-607 limits assumed): as the sequence (P02769 25-607 limits assumed, chain 2 of 2) above
substance,measurement,setting,value
"Histone H3 antibody, Abcam ab1791",maximum standard curve signal,[1],1.41 RFI
same,maximum standard curve signal,[2],0.04 RFI
same,maximum standard curve signal,[3],< 0.01 RFI
same,maximum standard curve signal,[4],< 0.01 RFI
same,maximum standard curve signal,[5],< 0.01 RFI
same,maximum standard curve signal,[6],< 0.01 RFI
same,maximum standard curve signal,[7],< 0.01 RFI
same,maximum standard curve signal,[8],1.13 RFI
same,maximum standard curve signal,[9],0.01 RFI
same,maximum standard curve signal,[10],< 0.01 RFI
same,maximum standard curve signal,[11],< 0.01 RFI
same,maximum standard curve signal,[12],< 0.01 RFI
same,LOD,[13],0.133 nM
same,LOD,[14],0.141 nM
same,LOD,[15],0.178 nM
same,mean LOD,[16],0.123 nM
same,mean LOD,[17],0.156 nM
"p44/42 MAPK (Erk1/2) antibody, Biosource 44-654G",LOD,[18],0.059 nM
same,LOD,[19],0.046 nM
same,LOD,[20],0.084 nM
same,mean LOD,[21],0.046 nM
same,mean LOD,[22],0.072 nM
same,mean signal (standard curve),[23],0.008 RFI
"p44/42 MAPK phospho (pERK1/2) Thr202/Tyr204 antibody, Cell Signaling Technology #9101",maximum standard curve signal,[24],0.1 RFI
same,maximum standard curve signal,[25],0.01 RFI
same,maximum standard curve signal,[26],0.01 RFI
same,maximum standard curve signal,[27],0.01 RFI
same,maximum standard curve signal,[28],0.45 RFI
same,maximum standard curve signal,[29],< 0.01 RFI
same,maximum standard curve signal,[30],0.02 RFI
same,maximum standard curve signal,[31],< 0.01 RFI
same,maximum standard curve signal,[32],0.01 RFI
same,maximum standard curve signal,[33],0.01 RFI
same,maximum standard curve signal,[34],0.01 RFI
same,maximum standard curve signal,[35],0.01 RFI
same,LOD,[36],0.032 nM
same,mean LOD,[37],0.03 nM
